The values below come from article PMC8790125, “Molecular Mechanism of SARS-CoVs Orf6 Targeting the Rae1–Nup98 Complex to Compete With mRNA Nuclear Export”.

This series deals with Rae1;Nup98 GLEBS (human;human, UniProt P78406;P52948-3 1-368;157-213, |). Kind of series: ITC. The following applies: protein: recombinant;recombinant; tags: His tag on the complex (HisTrap); copies: 1;1.
Rae1;Nup98 GLEBS, sequence (P78406 whole entry, chain 1 of 2): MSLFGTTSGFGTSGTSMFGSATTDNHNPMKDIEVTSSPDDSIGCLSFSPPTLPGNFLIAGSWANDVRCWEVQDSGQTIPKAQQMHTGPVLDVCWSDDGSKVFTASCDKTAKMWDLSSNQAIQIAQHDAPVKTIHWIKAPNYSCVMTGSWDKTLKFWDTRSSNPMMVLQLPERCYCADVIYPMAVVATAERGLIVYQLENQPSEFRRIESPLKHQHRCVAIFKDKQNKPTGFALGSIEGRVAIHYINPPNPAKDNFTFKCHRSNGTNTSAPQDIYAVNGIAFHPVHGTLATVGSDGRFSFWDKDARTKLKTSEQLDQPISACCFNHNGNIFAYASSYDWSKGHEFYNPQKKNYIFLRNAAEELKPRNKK
Rae1;Nup98 GLEBS, sequence (P52948 157-213, chain 2 of 2): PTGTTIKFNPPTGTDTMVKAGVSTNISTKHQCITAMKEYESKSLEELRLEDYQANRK

B1: 14-mer poly(U) ssRNA (ssRNA)
RNA: UUUUUUUUUUUUUU
With B1, the binding result is reported as “binds”.
